Measured values published in patent US20140315185A1, “METHODS AND COMPOSITIONS FOR IMPROVING SPERM FUNCTIONALITY” (ANDROGENIX LTD., priority 2011, published 2014).

B1: catalase: Bovine catalase (Sigma), used alone without the cholesterol-PEG5000-FITC linker; antioxidant enzyme (protein, listed as Bos taurus)
chain: MADNRDPASDQMKHWKEQRAAQKPDVLTTGGGNPVGDKLNSLTVGPRGPLLVQDVVFTDEMAHFDRERIPERVVHAKGAGAFGYFEVTHDITRYSKAKVFEHIGKRTPIAVRFSTVAGESGSADTVRDPRGFAVKFYTEDGNWDLVGNNTPIFFIRDALLFPSFIHSQKRNPQTHLKDPDMVWDFWSLRPESLHQVSFLFSDRGIPDGHRHMNGYGSHTFKLVNANGEAVYCKFHYKTDQGIKNLSVEDAARLAHEDPDYGLRDLFNAIATGNYPSWTLYIQVMTFSEAEIFPFNPFDLTKVWPHGDYPLIPVGKLVLNRNPVNYFAEVEQLAFDPSNMPPGIEPSPDKMLQGRLFAYPDTHRHRLGPNYLQIPVNCPYRARVANYQRDGPMCMMDNQGGAPNYYPNSFSAPEHQPSALEHRTHFSGDVQRFNSANDDNVTQVRTFYLKVLNEEQRKRLCENIAGHLKDAQLFIQKKAVKNFSDVHPEYGSRIQALLDKYNEEKPKNAVHTYVQHGSHLSAREKANL
B2: cholesterol-PEG5000-FITC-catalase: Bovine catalase covalently labelled with cholesterol-PEG5000-NHS-FITC; 4.0 to 5.4 cholesterol-PEG per catalase monomer (conjugate, UniProt P00432 2-527, looked up)
Catalase: ADNRDPASDQMKHWKEQRAAQKPDVLTTGGGNPVGDKLNSLTVGPRGPLLVQDVVFTDEMAHFDRERIPERVVHAKGAGAFGYFEVTHDITRYSKAKVFEHIGKRTPIAVRFSTVAGESGSADTVRDPRGFAVKFYTEDGNWDLVGNNTPIFFIRDALLFPSFIHSQKRNPQTHLKDPDMVWDFWSLRPESLHQVSFLFSDRGIPDGHRHMNGYGSHTFKLVNANGEAVYCKFHYKTDQGIKNLSVEDAARLAHEDPDYGLRDLFNAIATGNYPSWTLYIQVMTFSEAEIFPFNPFDLTKVWPHGDYPLIPVGKLVLNRNPVNYFAEVEQLAFDPSNMPPGIEPSPDKMLQGRLFAYPDTHRHRLGPNYLQIPVNCPYRARVANYQRDGPMCMMDNQGGAPNYYPNSFSAPEHQPSALEHRTHFSGDVQRFNSANDDNVTQVRTFYLKVLNEEQRKRLCENIAGHLKDAQLFIQKKAVKNFSDVHPEYGSRIQALLDKYNEEKPKNAVHTYVQHGSHLSAREKANL
modifications: cholesterol-PEG5000-FITC label
notes: Bovine catalase covalently labelled with cholesterol-PEG5000-NHS-FITC; 4.0 to 5.4 cholesterol-PEG per catalase monomer

How the values were obtained:
[1] = test system: sperm; conditions: added in sufficient concentration and simultaneously with the H2O2; cited from earlier work
[2] = test system: Jurkat cells; assay: Catalase activity assay of treated Jurkat cells; format: cell-based, human; conditions: units per 2.5×10^6 cells; incubated at 37° C. for 30 min, then centrifuged and resuspended
Method: (§1) Recovery of the cholesterol-PEG5000-FITC-catalase was determined by Coomassie staining and catalase activity assay. For the catalase activity assay, 0.5 μl of test samples and serially diluted bovine catalase (Sigma) were placed in a microtitre plate, and incubated with 50 μl of 10 ng/ml of streptavidin-HRP (Biosource) and 50 μl of TMB substrate (Invitrogen) for 5 min. The plate was read at 450 nm on an EnVision plate reader (PerkinElmer) after stopping the reaction with 50 μl of 2 M sulfuric acid. Catalase activity of the test sample was calculated from the standard curve generated with known concentrations of bovine catalase.
Jurkat cells (ATCC, TIB-152; human T lymphocyte cell line) were cultured in RPMI-1640 media with 10% fetal calf serum. For analysis, cells were removed from culture, centrifuged at 700×g for 5 min, the culture media was removed and cells were resuspended at a concentration of 5×10^7 cells/ml in PBS. […] The Jurkat cells were analyzed by both flow cytometry and catalase activity assay.
The catalase activity of the treated Jurkat cells was measured as described in Example 1. 50 μl of 5×10^7 cells/ml of each test sample was analysed in the assay and the catalase activity contained in each of the Jurkat samples was calculated from the standard curve. […]

[3] = test system: bovine sperm; assay: Binding of cholesterol-PEG-catalase to sperm, flow cytometry; format: cell-based; conditions: sperm incubated with 3 mg/ml conjugate at 37° C. for 30 min, unbound removed on Percoll PLUS
Method: 1.5 ml of bovine sperm in liquid extender was carefully placed on top of 4 ml of 60%_Percoll™ PLUS (GE Healthcare) column, and centrifugated for 20 min at 700×g at 20° C. The resulting purified sperm pellet was resuspended in non-capacitating media (NCM; see Table 2) containing 0.1 mg/ml of BSA to a cell concentration of 5×10^7 ml. 200 μl of the purified sperm was mixed with an equal volume of 3 mg/ml cholesterol-PEG5000-FITC-catalase, and incubated light protected at 37° C. for 30 min. The unbound cholesterol-PEG5000-FITC-catalase was removed by layering 400 μl of sperm/cholesterol-PEG5000-FITC-catalase mixture on the top of 500 μl of 60% Percoll™ PLUS column, followed by centrifugation for 20 min at 700×g at 20° C. The sperm pellet was resuspended in NCM containing 0.1 mg/ml of BSA to a total volume of 400 μl. The binding of cholesterol-PEG5000-FITC-catalase to sperm was analysed by flow cytometry and catalase activity assay. […] The catalase activity of cholesterol-PEG5000-FITC-catalase bound sperm was measured as described in Example 1. 79 units of catalase activity were measured in 2.5×10^6 sperm cells after binding with cholesterol-PEG5000-FITC-catalase, whereas no catalase activity was detected in control sperm without addition of cholesterol-PEG5000-FITC-catalase.

[4] = test system: bovine sperm; assay: Catalase activity assay of conjugate-bound sperm; format: cell-based; conditions: in 2.5×10^6 sperm cells after binding and removal of unbound conjugate
Method: as §1
1.5 ml of bovine sperm in liquid extender was carefully placed on top of 4 ml of 60%_Percoll™ PLUS (GE Healthcare) column, and centrifugated for 20 min at 700×g at 20° C. […] The binding of cholesterol-PEG5000-FITC-catalase to sperm was analysed by flow cytometry and catalase activity assay. […] The catalase activity of cholesterol-PEG5000-FITC-catalase bound sperm was measured as described in Example 1. 79 units of catalase activity were measured in 2.5×10^6 sperm cells after binding with cholesterol-PEG5000-FITC-catalase, whereas no catalase activity was detected in control sperm without addition of cholesterol-PEG5000-FITC-catalase.

Row | Molecule | rescue of H2O2-induced loss of motility [1] | catalase activity in Jurkat cells [2] [U] | binding to live sperm (Hoechst 33258 negative) [3] | catalase activity of bound sperm [4] [units]
1 | N[C@@H](CCC(=O)N[C@@H](CS)C(=O)NCC(=O)O)C(=O)O [glutathione, reference compound] | able to rescue the loss of motility |  |  | 
2 | B1 | able to rescue the loss of motility | 44 |  | 
3 | B2 |  | 66 | approx. 10 fold over background | 79
